# Measured values: the supplement of paper PMC10567573
# B1: ALDH8A1 (parent)
# chain: FTGSQPTAERITQLSAPHCKKLSL
# Variants of: B1
# Assay: protein stability index of a GFP-peptide fusion (GPS, HEK-293T) (PSI 1-6); higher = more stable
# Details: c terminus: a fixed tail appended
# 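Further: lentivirally expressed fusions sorted by FACS into six bins by GFP to DsRed ratio, PSI derived from sequencing read proportions per bin multiplied by bin number.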
row,Variant,protein stability index
1,FIGSQPTAERITQLSAPHCKKLSL,2.07
2,FCGSQPTAERITQLSAPHCKKLSL,1.86
3,FMGSQPTAERITQLSAPHCKKLSL,3.07
4,FVGSQPTAERITQLSAPHCKKLSL,1.02
5,FYGSQPTAERITQLSAPHCKKLSL,3.35
6,FRGSQPTAERITQLSAPHCKKLSL,3.37
7,FSGSQPTAERITQLSAPHCKKLSL,3.11
8,FTGSQPTAERITMLSAPHCKKLSL,2.03
9,FTGSQPTAERITHLSAPHCKKLSL,2.24
10,FTGSQPTACRITQLSAPHCKKLSL,2.14
11,FTGSQPTAQRITQLSAPHCKKLSL,2.09
12,FTGSQPTARRITQLSAPHCKKLSL,1.96
13,FTGSQPTAWRITQLSAPHCKKLSL,3.33
14,TTGSQPTAERITQLSAPHCKKLSL,4.27
15,YTGSQPTAERITQLSAPHCKKLSL,2.47
16,FTGSQPTAERITQLSAPHCGKLSL,2.85
17,FTGSQPTAERITQLSAPHCIKLSL,1.61
18,FTGSQPTAERITQLSAPHCEKLSL,2.75
19,FTGSQPTAERITQLSAPHCTKLSL,2.19
20,FTGSQPTAERITQLSAPHCAKLSL,2.2
21,FTGSQPTAERITQLSAPPCKKLSL,2.93
22,FTGSQPTAERITQLSAPHCKKLSR,2.52
23,FTGSQPTAERITQLSAPHCKKLSS,2.95
24,FTGSQPTAERITQLSAPHCKKLSY,2.2

row,Variant,protein stability index
1,FTGSQPTAERITQLSAPHCKKLSC,2.52
2,FTGSQPLAERITQLSAPHCKKLSL,2.27
3,FTGSQPMAERITQLSAPHCKKLSL,2.12
4,FTGSQPGAERITQLSAPHCKKLSL,2.11
5,FTGSQPSAERITQLSAPHCKKLSL,2.08
6,FTGSQPDAERITQLSAPHCKKLSL,2.98
7,FTGSQPTAERITQPSAPHCKKLSL,2.77
8,FTGSQPTAERITQHSAPHCKKLSL,2.58
9,FTGSQPTAERITQGSAPHCKKLSL,2.56
10,FTGSQPTAERITQVSAPHCKKLSL,1.9
11,FTGSQPTAERTTQLSAPHCKKLSL,2.84
12,FTGSQPTAERWTQLSAPHCKKLSL,2.08
13,FTGSQPTAERQTQLSAPHCKKLSL,2.49
14,FTGSQPTAERETQLSAPHCKKLSL,2.73
15,FTGSQPTAERDTQLSAPHCKKLSL,3.39
16,FTGSQPTAERCTQLSAPHCKKLSL,2.6
17,FTGSQPTAERGTQLSAPHCKKLSL,2.09
18,FTGSQNTAERITQLSAPHCKKLSL,2.71
19,FTGSQITAERITQLSAPHCKKLSL,2.07
20,FTGSQVTAERITQLSAPHCKKLSL,2.07
21,FTGSQQTAERITQLSAPHCKKLSL,2.38
22,FTGSQPTAERITQLSAPHCKKLEL,2.56
23,FTGSQPTAERITQLSAPHCKKLML,2.27
24,FTGSQPTAERITQLSAPHCKKLGL,1.97

row,Variant,protein stability index
1,FTGSQPTAERITQLSAPHCKKLTL,1.88
2,FTGSQPTAERITQLSAPHCKKLIL,2.15
3,FTHSQPTAERITQLSAPHCKKLSL,2.4
4,FTCSQPTAERITQLSAPHCKKLSL,2.68
5,FTSSQPTAERITQLSAPHCKKLSL,2.65
6,FTGSQPTAERITQLSAPHCKLLSL,1.84
7,FTGSQPTAERITQLSAPHCKHLSL,2.1
8,FTGSQPTAERITQLSAPHCKRLSL,2.41
9,FTGSQPTAERITQLSAPHCKALSL,2.56
10,FTGSQPTAERITQLSAPHSKKLSL,1.96
11,FTGSQPTAERITQLSAPHMKKLSL,1.96
12,FTGSQPTAERITQLSAPHQKKLSL,2.79
13,FTGGQPTAERITQLSAPHCKKLSL,1.7
14,FTGYQPTAERITQLSAPHCKKLSL,2.22
15,FTGCQPTAERITQLSAPHCKKLSL,2.31
16,FTGHQPTAERITQLSAPHCKKLSL,2.59
17,FTGSQPTAERITQLRAPHCKKLSL,1.71
18,FTGSQPTAERITQLKAPHCKKLSL,1.84
19,FTGSQPTAERITQLSQPHCKKLSL,2.1
20,FTGSQPTAERITQLSTPHCKKLSL,2.63
21,FTGSQPTAERITQLSSPHCKKLSL,2.17
22,FTGSQPTAERITQLSAIHCKKLSL,2.38
23,FTGSQPTAERITQLSALHCKKLSL,1.78
24,FTGSQPTAERITQLSAMHCKKLSL,2.04

row,Variant,protein stability index
1,FTGSQPTAERITQLSAWHCKKLSL,2.46
2,FTGSQPTAERITQLSACHCKKLSL,2.13
3,FTGSQPTAECITQLSAPHCKKLSL,1.94
4,FTGSQPTAEVITQLSAPHCKKLSL,1.63
5,FTGSQPTAEQITQLSAPHCKKLSL,2.17
6,FTGSQPTAERIIQLSAPHCKKLSL,1.51
7,FTGSQPTAERIWQLSAPHCKKLSL,3.11
8,FTGSQPTAERISQLSAPHCKKLSL,2.79
9,FTGSQPTAERINQLSAPHCKKLSL,2.25
10,FTGSKPTAERITQLSAPHCKKLSL,2.06
11,FTGSDPTAERITQLSAPHCKKLSL,2.19
12,FTGSIPTAERITQLSAPHCKKLSL,2.39
13,FTGSCPTAERITQLSAPHCKKLSL,2.45
14,FTGSMPTAERITQLSAPHCKKLSL,2.19
15,FTGSFPTAERITQLSAPHCKKLSL,1.68
16,FTGSQPTRERITQLSAPHCKKLSL,2.6
17,FTGSQPTMERITQLSAPHCKKLSL,2.58
18,FTGSQPTIERITQLSAPHCKKLSL,2.46
19,FTGSQPTAERITQLSAPHCKKRSL,2.23
20,FTGSQPTAERITQLSAPHCKKYSL,2.68
21,FTGSQPTAERITQLSAPHCKKTSL,2.61
22,FTGSQPTAERITQLSAPHCKKQSL,2.68
